According to patent US20210324359A1, “USE OF GRAM-NEGATIVE LYSIN-ANTIMICROBIAL PEPTIDE (AMP) POLYPEPTIDE CONSTRUCTS IN TREATING ENDOCARDITIS” (priority 2020, published 2021):
Entries after “also recorded” stand apart in the source; their conditions may differ. Where two headings read alike, the source gives them in different places.

Experiments:
[1] = system: P. aeruginosa strain PA453; assay: Time-kill assay of GN370 in animal blood (Table 34); type: cell-based, Pseudomonas aeruginosa; details: for Log10 CFU/mL of P. aeruginosa: Rat blood, limit of detection 1.6
Description: The results are shown below in Table 34, wherein survival is reported as Log10 CFU/mL and wherein the limit of detection was 1.6 Log10 CFU/mL.

[2] = system: P. aeruginosa PA20 recovered from rabbit lung homogenates; type: cell-based, Pseudomonas aeruginosa; details: for number of isolates with GN370 MIC 1 μg/mL / number of isolates with GN370 MIC 2 μg/mL: n=48
P. aeruginosa (PA20) = assay: Rabbit infective endocarditis model (Tables 28-32, FIGS. 5-8); type: in vivo, Pseudomonas aeruginosa in rabbits
Method: Initially, a polyethylene catheter was placed into the rabbits' right ventricle and secured. 48 hours after catheter placement, rabbits were infected intravenously with P. aeruginosa (PA20) (6×10^9 CFU/mL). Treatment commenced 24 hours post-infection.
Data were analyzed using the Kruskal-Wallis method for multiple comparison and then adjusted with a false discovery rate approach (Benjamini-Hochberg method), using StatsDirect Software. A p-value of <0.05 was considered statistically significant.

P. aeruginosa PA20 = assay: MIC of GN370 and meropenem against the infecting strain; type: cell-based, Pseudomonas aeruginosa
[3] = system: P. aeruginosa strain WC-453; assay: Time-kill assay in HEPES or CAA with 25% human serum (Tables 7, 8); type: cell-based, Pseudomonas aeruginosa
Method: Exponential phase bacteria were then pelleted and resuspended in 1/5 culture volume of 25 mM HEPES, pH 7.4 before a final adjustment to an optical density corresponding to a McFarland value of 0.5. […] All treatments were incubated at 37° C. with aeration. At time points before the addition of lysin (or buffer control) and at 1 hour and 3 hours intervals thereafter, culture samples were removed for quantitative plating on CAA agar plates.

[4] = system: outer membrane of P. aeruginosa (CFS 1292); assay: N-phenyl-1-napthylamine (NPN) uptake assay, outer membrane destabilization (Table 15); type: cell-based, Pseudomonas aeruginosa; details: NPN fluorescence, buffer = 100, lysin 100 μg/well
Method: The ability of gram-negative lysins to destabilize the outer membrane of P. aeruginosa was evaluated through the use of an N-phenyl-1-napthylamine (NPN) uptake assay. […] NPN was added to a final concentration of […]. […] Changes in fluorescence were recorded (excitation 1=350 nm; emission 1=420 nm) over two hours.

[5] = system: Pseudomonas aeruginosa strain CFS-1292 (meropenem resistant); assay: MIC in 25% CAA alone, with […] human serum or […] SURVANTA (Table 13); type: cell-based
Method: Materials and methods: MICs were determined by broth microdilution in media supplemented with human serum and pulmonary surfactant ([…]®; Myoderm Clinical Supplies). Minimal biofilm eradicating concentrations (MBECs) were determined using standard methods. […] Fluorescence microscopy was performed after LIVE/DEAD staining (ThermoFisher) and TEM was performed.

[6] = isolates from GN370 (3 mg/kg) + Meropenem (20 mg/kg) group
[7] = isolates from GN370 (30 mg/kg) + Meropenem (20 mg/kg) group
[8] = isolates from GN370 (30 mg/kg) group
[9] = isolates from Vehicle control group
[10] = single dose of GN370 + meropenem

B1: GN370: lysin-AMP construct: MIDR, FIRL and NPTH moieties N-terminal to GN202 lysin (SEQ ID NO: 44) (protein)
chain: MIDRFIRLNPTHGPRRPRRPGRRAPVRTSQRGIDLIKSFEGLRLSAYQDSVGVWTIGYGTTRGVTRYMTITVEQAERMLSNDIQRFEPELDRLAKVPLNQNQWDALMSFVYNLGAANLASSTLLDLLNKGDYQGAADQFPHWVNAGGKRLDGLVKRRAAERALFLEPLS
In the case of B1, the “Log10 CFU/mL of P. aeruginosa” value ([1]; 4 hours, GN370 4 μg/mL) is reported as 7.0 Log10 CFU/mL, the “Log10 CFU/mL of P. aeruginosa” value ([1]; 4 hours, GN370 20 μg/mL) is reported as 6.2 Log10 CFU/mL and the “Log10 CFU/mL of P. aeruginosa” value ([1]; 4 hours, GN370 50 μg/mL) is reported as 3.7 Log10 CFU/mL. For the same molecule, the “Log10 CFU/mL of P. aeruginosa” value ([1]; 4 hours, GN370 100 μg/mL) was 1.6 Log10 CFU/mL, the “Log10 CFU/mL of P. aeruginosa” value ([1]; 4 hours, GN370 200 μg/mL) was 1.6 Log10 CFU/mL and the “Log10 CFU/mL of P. aeruginosa” value ([1]; 24 hours, GN370 4 μg/mL) was 7.9 Log10 CFU/mL. The “Log10 CFU/mL of P. aeruginosa” value ([1]; 24 hours, GN370 20 μg/mL) was 7.8 Log10 CFU/mL, the “Log10 CFU/mL of P. aeruginosa” value ([1]; 24 hours, GN370 50 μg/mL) was 7.6 Log10 CFU/mL and the “Log10 CFU/mL of P. aeruginosa” value ([1]; 24 hours, GN370 100 μg/mL) was 3.6 Log10 CFU/mL. The “Log10 CFU/mL of P. aeruginosa” value ([1]; 24 hours, GN370 200 μg/mL) was 1.6 Log10 CFU/mL, the “activity in dog, human, and rabbit blood (time-kill)” value ([1]; all times, 20-200 μg/mL, strain PA453) was “high activity” and the “activity in rat blood (time-kill)” value ([1]; majority of the times and concentrations tested, strain PA453) was “poor or no activity”. The “ex vivo resistance / increase in MIC of isolates recovered from rabbit lung” value ([2]; all treatment groups of the rabbit pulmonary model) was “not observed; also recorded: no increase in MIC”, the “number of isolates with GN370 MIC 1 μg/mL” value [2, 6] was 34 and the “number of isolates with GN370 MIC 2 μg/mL” value [2, 6] was 14. The “number of isolates with GN370 MIC 2 μg/mL” value ([2]; isolates from GN370 (3 mg/kg) group) was 16, the “number of isolates with GN370 MIC 1 μg/mL” value ([2]; isolates from GN370 (10 mg/kg) + Meropenem (20 mg/kg) group) was 48 and the “number of isolates with GN370 MIC 2 μg/mL” value ([2]; isolates from GN370 (10 mg/kg) group) was 16. The “number of isolates with GN370 MIC 1 μg/mL” value [2, 7] was 35, the “number of isolates with GN370 MIC 2 μg/mL” value [2, 7] was 13 and the “number of isolates with GN370 MIC 1 μg/mL” value [2, 8] was 16. For the same molecule, the “number of isolates with GN370 MIC 2 μg/mL” value [2, 8] was 32, the “number of isolates with GN370 MIC 2 μg/mL” value ([2]; isolates from Meropenem (20 mg/kg) group) was 16 and the “number of isolates with GN370 MIC 2 μg/mL” value ([2]; isolates from Pre-treatment control group) was 48. The “number of isolates with GN370 MIC 1 μg/mL” value [2, 9] was 13, the “number of isolates with GN370 MIC 2 μg/mL” value [2, 9] was 35 and the “change of cardiac vegetations counts vs untreated controls” value (P. aeruginosa (PA20); meropenem + 3 mg/kg GN370) was −1.3 log10 CFU/g. For the same molecule, the “change of cardiac vegetations counts vs vehicle-treated controls” value (P. aeruginosa (PA20); meropenem + 3 mg/kg GN370) was −0.8 log10 CFU/g, the “change of cardiac vegetations counts vs untreated controls” value (P. aeruginosa (PA20); meropenem + 10 mg/kg GN370) was −1.1 log10 CFU/g and the “change of cardiac vegetations counts vs vehicle-treated controls” value (P. aeruginosa (PA20); meropenem + 10 mg/kg GN370) was −0.5 log10 CFU/g. The “P. aeruginosa densities in kidney, spleen and lung vs meropenem alone” value (P. aeruginosa (PA20); meropenem + GN370 at all doses) was −0.6 to−2.2 log10 CFU/g, the “P. aeruginosa densities in kidney, spleen and lung vs untreated control” value (P. aeruginosa (PA20); meropenem + GN370 at all doses) was −2.0 to−3.6 log10 CFU/g and the “P. aeruginosa densities in kidney, spleen and lung vs vehicle” value (P. aeruginosa (PA20); meropenem + GN370 at all doses) was −1.7 to−3.2 log10 CFU/g. The “CFU reduction in cardiac vegetation tissues” value (P. aeruginosa (PA20); [10]) was “about 1 log kill”, the “CFU reduction in kidney, spleen and lung tissues” value (P. aeruginosa (PA20); [10]) was “about 3 log kill” and the “CFU reduction in cardiac vegetations” value (P. aeruginosa (PA20); three days of GN370 at 10 mg/kg + 5 mg/kg meropenem, compared to both the start of treatment and a vehicle control) was > 2 log CFU. For the same molecule, the “MIC of P. aeruginosa PA20” value (P. aeruginosa PA20) was 2 µg/mL, the “MIC against P. aeruginosa” value (P. aeruginosa PA20; GN370 value in rabbit serum) was 2 µg/mL and the “bactericidal activity (CFU decrease of 3-Log10, 3 hours after the addition of lysin)” value ([3]; 10 μg/mL, enumerated lysins in CAA/HuS, general statement for HEPES and CAA/HuS) was “bactericidal activity”. For the same molecule, the “CAA/HuS (Log10 CFU/mL), 1 hr” value ([3]; CAA + 25% human serum, lysin 10 μg/ml, 1 hr, WC-453) was 4.0 Log10 CFU/mL, the “CAA/HuS (Log10 CFU/mL), 3 hr” value ([3]; CAA + 25% human serum, lysin 10 μg/ml, 3 hr, WC-453) was <3.7 Log10 CFU/mL and the “% RFU” value ([4]; 5 minutes) was 205 % RFU. The “% RFU” value ([4]; 10 minutes) was 217 % RFU, the “% RFU” value ([4]; 20 minutes) was 213 % RFU and the “% RFU” value ([4]; 40 minutes) was 198 % RFU. The “% RFU” value ([4]; 60 minutes) was 193 % RFU, the “% RFU” value ([4]; 100 minutes) was 184 % RFU and the “MIC in […] Survanta” value [5] was 2 µg/mL. The “MIC in human serum ([…]) in CAA” value [5] was 2 µg/mL, the “activity in human serum and pulmonary surfactant” value [5] was “active in human serum and pulmonary surfactant” and the “25% CAA MIC” value ([5]; media alone) was 4.
